T1: FcγRIIb (human, UniProt P31994 43-217)
T1 construct: extracellular domain; also called FcgRIIb; 2b; not shown: His tag attached to the C terminus
T1 sequence (looked up): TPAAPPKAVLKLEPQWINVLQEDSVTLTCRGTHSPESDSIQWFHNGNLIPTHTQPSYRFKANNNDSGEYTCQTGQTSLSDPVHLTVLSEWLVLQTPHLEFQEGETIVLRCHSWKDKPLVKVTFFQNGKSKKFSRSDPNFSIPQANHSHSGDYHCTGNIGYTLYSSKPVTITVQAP

T2: FcγRIIa H (human, UniProt P12318 34-217)
T2 construct: extracellular domain; also called FcgRIIa H; FcγRIIa type H; not shown: His tag attached to the C terminus
T2 sequence (looked up): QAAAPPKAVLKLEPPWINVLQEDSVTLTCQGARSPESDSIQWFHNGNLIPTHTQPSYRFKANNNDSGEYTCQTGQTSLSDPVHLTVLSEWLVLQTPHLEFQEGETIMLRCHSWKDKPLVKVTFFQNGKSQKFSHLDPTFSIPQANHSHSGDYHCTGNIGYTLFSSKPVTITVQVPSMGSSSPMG

B1: GpH7-A5/GpH7-B3 variant A330_12R/GpL16-k0 (antibody, human IgG1, kappa)
heavy 1: not shown
heavy 2: not shown
light: DIVMTQSPLSLPVTPGEPASISCQASESLVHSNRNTYLHWYLQKPGQSPQLLIYKVSNRFSGVPDRFSGSGSGTDFTLKISRVEAEDVGVYYCSQNTHVPPTFGQGTKVEIERTVAAPSVFIFPPSDEQLKSGTASVVCLLNNFYPREAKVQWKVDNALQSGNSQESVTEQDSKDSTYSLSSTLTLSKADYEKHKVYACEVTHQGLSSPVTKSFNRGEC
notes: Heterodimerized IgG1, mutation in the GpH7-B3 chain only; also called He Ab
B2: GpH7-A5/GpH7-B3 variant S324_02A/GpL16-k0 (antibody, human IgG1, kappa)
heavy 1: not shown
heavy 2: not shown
light: DIVMTQSPLSLPVTPGEPASISCQASESLVHSNRNTYLHWYLQKPGQSPQLLIYKVSNRFSGVPDRFSGSGSGTDFTLKISRVEAEDVGVYYCSQNTHVPPTFGQGTKVEIERTVAAPSVFIFPPSDEQLKSGTASVVCLLNNFYPREAKVQWKVDNALQSGNSQESVTEQDSKDSTYSLSSTLTLSKADYEKHKVYACEVTHQGLSSPVTKSFNRGEC
notes: as for B1
B3: GpH7-A5/GpH7-B3 variant H268_04F/GpL16-k0 (antibody, human IgG1, kappa)
heavy 1: not shown
heavy 2: not shown
light: DIVMTQSPLSLPVTPGEPASISCQASESLVHSNRNTYLHWYLQKPGQSPQLLIYKVSNRFSGVPDRFSGSGSGTDFTLKISRVEAEDVGVYYCSQNTHVPPTFGQGTKVEIERTVAAPSVFIFPPSDEQLKSGTASVVCLLNNFYPREAKVQWKVDNALQSGNSQESVTEQDSKDSTYSLSSTLTLSKADYEKHKVYACEVTHQGLSSPVTKSFNRGEC
notes: as for B1
B4: GpH7-A5/GpH7-B3 variant A330_19Q/GpL16-k0 (antibody, human IgG1, kappa)
heavy 1: not shown
heavy 2: not shown
light: DIVMTQSPLSLPVTPGEPASISCQASESLVHSNRNTYLHWYLQKPGQSPQLLIYKVSNRFSGVPDRFSGSGSGTDFTLKISRVEAEDVGVYYCSQNTHVPPTFGQGTKVEIERTVAAPSVFIFPPSDEQLKSGTASVVCLLNNFYPREAKVQWKVDNALQSGNSQESVTEQDSKDSTYSLSSTLTLSKADYEKHKVYACEVTHQGLSSPVTKSFNRGEC
notes: as for B1
B5: GpH7-A5/GpH7-B3 variant S324_09D/GpL16-k0 (antibody, human IgG1, kappa)
heavy 1: not shown
heavy 2: not shown
light: DIVMTQSPLSLPVTPGEPASISCQASESLVHSNRNTYLHWYLQKPGQSPQLLIYKVSNRFSGVPDRFSGSGSGTDFTLKISRVEAEDVGVYYCSQNTHVPPTFGQGTKVEIERTVAAPSVFIFPPSDEQLKSGTASVVCLLNNFYPREAKVQWKVDNALQSGNSQESVTEQDSKDSTYSLSSTLTLSKADYEKHKVYACEVTHQGLSSPVTKSFNRGEC
notes: as for B1
B6: GpH7-A5/GpH7-B3 variant Q295_07I/GpL16-k0 (antibody, human IgG1, kappa)
heavy 1: not shown
heavy 2: not shown
light: DIVMTQSPLSLPVTPGEPASISCQASESLVHSNRNTYLHWYLQKPGQSPQLLIYKVSNRFSGVPDRFSGSGSGTDFTLKISRVEAEDVGVYYCSQNTHVPPTFGQGTKVEIERTVAAPSVFIFPPSDEQLKSGTASVVCLLNNFYPREAKVQWKVDNALQSGNSQESVTEQDSKDSTYSLSSTLTLSKADYEKHKVYACEVTHQGLSSPVTKSFNRGEC
notes: as for B1
B7: GpH7-A5/GpH7-B3 variant D270_10E/GpL16-k0 (antibody, human IgG1, kappa)
heavy 1: not shown
heavy 2: not shown
light: DIVMTQSPLSLPVTPGEPASISCQASESLVHSNRNTYLHWYLQKPGQSPQLLIYKVSNRFSGVPDRFSGSGSGTDFTLKISRVEAEDVGVYYCSQNTHVPPTFGQGTKVEIERTVAAPSVFIFPPSDEQLKSGTASVVCLLNNFYPREAKVQWKVDNALQSGNSQESVTEQDSKDSTYSLSSTLTLSKADYEKHKVYACEVTHQGLSSPVTKSFNRGEC
notes: as for B1
B8: GpH7-A5/GpH7-B3 variant I332_19Q/GpL16-k0 (antibody, human IgG1, kappa)
heavy 1: not shown
heavy 2: not shown
light: DIVMTQSPLSLPVTPGEPASISCQASESLVHSNRNTYLHWYLQKPGQSPQLLIYKVSNRFSGVPDRFSGSGSGTDFTLKISRVEAEDVGVYYCSQNTHVPPTFGQGTKVEIERTVAAPSVFIFPPSDEQLKSGTASVVCLLNNFYPREAKVQWKVDNALQSGNSQESVTEQDSKDSTYSLSSTLTLSKADYEKHKVYACEVTHQGLSSPVTKSFNRGEC
notes: as for B1
B9: GpH7-A5/GpH7-B3 variant S324_15Y/GpL16-k0 (antibody, human IgG1, kappa)
heavy 1: not shown
heavy 2: not shown
light: DIVMTQSPLSLPVTPGEPASISCQASESLVHSNRNTYLHWYLQKPGQSPQLLIYKVSNRFSGVPDRFSGSGSGTDFTLKISRVEAEDVGVYYCSQNTHVPPTFGQGTKVEIERTVAAPSVFIFPPSDEQLKSGTASVVCLLNNFYPREAKVQWKVDNALQSGNSQESVTEQDSKDSTYSLSSTLTLSKADYEKHKVYACEVTHQGLSSPVTKSFNRGEC
notes: as for B1
B10: GpH7-A5/GpH7-B3 variant I332_13S/GpL16-k0 (antibody, human IgG1, kappa)
heavy 1: not shown
heavy 2: not shown
light: DIVMTQSPLSLPVTPGEPASISCQASESLVHSNRNTYLHWYLQKPGQSPQLLIYKVSNRFSGVPDRFSGSGSGTDFTLKISRVEAEDVGVYYCSQNTHVPPTFGQGTKVEIERTVAAPSVFIFPPSDEQLKSGTASVVCLLNNFYPREAKVQWKVDNALQSGNSQESVTEQDSKDSTYSLSSTLTLSKADYEKHKVYACEVTHQGLSSPVTKSFNRGEC
notes: as for B1
B11: GpH7-A5/GpH7-B3 variant I332_18N/GpL16-k0 (antibody, human IgG1, kappa)
heavy 1: not shown
heavy 2: not shown
light: DIVMTQSPLSLPVTPGEPASISCQASESLVHSNRNTYLHWYLQKPGQSPQLLIYKVSNRFSGVPDRFSGSGSGTDFTLKISRVEAEDVGVYYCSQNTHVPPTFGQGTKVEIERTVAAPSVFIFPPSDEQLKSGTASVVCLLNNFYPREAKVQWKVDNALQSGNSQESVTEQDSKDSTYSLSSTLTLSKADYEKHKVYACEVTHQGLSSPVTKSFNRGEC
notes: as for B1
B12: GpH7-A5/GpH7-B3 variant S324_10E/GpL16-k0 (antibody, human IgG1, kappa)
heavy 1: not shown
heavy 2: not shown
light: DIVMTQSPLSLPVTPGEPASISCQASESLVHSNRNTYLHWYLQKPGQSPQLLIYKVSNRFSGVPDRFSGSGSGTDFTLKISRVEAEDVGVYYCSQNTHVPPTFGQGTKVEIERTVAAPSVFIFPPSDEQLKSGTASVVCLLNNFYPREAKVQWKVDNALQSGNSQESVTEQDSKDSTYSLSSTLTLSKADYEKHKVYACEVTHQGLSSPVTKSFNRGEC
notes: as for B1
B13: GpH7-A5/GpH7-B3 variant Q295_05P/GpL16-k0 (antibody, human IgG1, kappa)
heavy 1: not shown
heavy 2: not shown
light: DIVMTQSPLSLPVTPGEPASISCQASESLVHSNRNTYLHWYLQKPGQSPQLLIYKVSNRFSGVPDRFSGSGSGTDFTLKISRVEAEDVGVYYCSQNTHVPPTFGQGTKVEIERTVAAPSVFIFPPSDEQLKSGTASVVCLLNNFYPREAKVQWKVDNALQSGNSQESVTEQDSKDSTYSLSSTLTLSKADYEKHKVYACEVTHQGLSSPVTKSFNRGEC
notes: as for B1
B14: GpH7-A5/GpH7-B3 variant S324_04F/GpL16-k0 (antibody, human IgG1, kappa)
heavy 1: not shown
heavy 2: not shown
light: DIVMTQSPLSLPVTPGEPASISCQASESLVHSNRNTYLHWYLQKPGQSPQLLIYKVSNRFSGVPDRFSGSGSGTDFTLKISRVEAEDVGVYYCSQNTHVPPTFGQGTKVEIERTVAAPSVFIFPPSDEQLKSGTASVVCLLNNFYPREAKVQWKVDNALQSGNSQESVTEQDSKDSTYSLSSTLTLSKADYEKHKVYACEVTHQGLSSPVTKSFNRGEC
notes: as for B1
B15: GpH7-A5/GpH7-B3 variant A330_16H/GpL16-k0 (antibody, human IgG1, kappa)
heavy 1: not shown
heavy 2: not shown
light: DIVMTQSPLSLPVTPGEPASISCQASESLVHSNRNTYLHWYLQKPGQSPQLLIYKVSNRFSGVPDRFSGSGSGTDFTLKISRVEAEDVGVYYCSQNTHVPPTFGQGTKVEIERTVAAPSVFIFPPSDEQLKSGTASVVCLLNNFYPREAKVQWKVDNALQSGNSQESVTEQDSKDSTYSLSSTLTLSKADYEKHKVYACEVTHQGLSSPVTKSFNRGEC
notes: as for B1
B16: GpH7-A5/GpH7-B3 variant I332_03V/GpL16-k0 (antibody, human IgG1, kappa)
heavy 1: not shown
heavy 2: not shown
light: DIVMTQSPLSLPVTPGEPASISCQASESLVHSNRNTYLHWYLQKPGQSPQLLIYKVSNRFSGVPDRFSGSGSGTDFTLKISRVEAEDVGVYYCSQNTHVPPTFGQGTKVEIERTVAAPSVFIFPPSDEQLKSGTASVVCLLNNFYPREAKVQWKVDNALQSGNSQESVTEQDSKDSTYSLSSTLTLSKADYEKHKVYACEVTHQGLSSPVTKSFNRGEC
notes: as for B1
B17: GpH7-A5/GpH7-B3 variant I332_16H/GpL16-k0 (antibody, human IgG1, kappa)
heavy 1: not shown
heavy 2: not shown
light: DIVMTQSPLSLPVTPGEPASISCQASESLVHSNRNTYLHWYLQKPGQSPQLLIYKVSNRFSGVPDRFSGSGSGTDFTLKISRVEAEDVGVYYCSQNTHVPPTFGQGTKVEIERTVAAPSVFIFPPSDEQLKSGTASVVCLLNNFYPREAKVQWKVDNALQSGNSQESVTEQDSKDSTYSLSSTLTLSKADYEKHKVYACEVTHQGLSSPVTKSFNRGEC
notes: as for B1
B18: GpH7-A5/GpH7-B3 variant K326_12R/GpL16-k0 (antibody, human IgG1, kappa)
heavy 1: not shown
heavy 2: not shown
light: DIVMTQSPLSLPVTPGEPASISCQASESLVHSNRNTYLHWYLQKPGQSPQLLIYKVSNRFSGVPDRFSGSGSGTDFTLKISRVEAEDVGVYYCSQNTHVPPTFGQGTKVEIERTVAAPSVFIFPPSDEQLKSGTASVVCLLNNFYPREAKVQWKVDNALQSGNSQESVTEQDSKDSTYSLSSTLTLSKADYEKHKVYACEVTHQGLSSPVTKSFNRGEC
notes: as for B1

How the values were obtained:
FcγRIIb = molecular target: T1, FcγRIIb; test: SPR (Biacore), antibody captured, FcγR as analyte; binding relative to GpH7-A5/GpH7-B3/GpL16-k0 = 100
FcγRIIa H = molecular target: T2, FcγRIIa H; test: as above

Binder | He/Con_2b (FcγRIIb) [control = 100] | He/Con_2aH (FcγRIIa H) [control = 100]
B1 | 84.8 | 108
B2 | 78.3 | 102
B3 | 89.6 | 111
B4 | 90.8 | 102
B5 | 85.8 | 106
B6 | 84.3 | 102
B7 | 76.5 | 102
B8 | 94.3 | 108
B9 | 88.2 | 102
B10 | 98.4 | 110
B11 | 89.9 | 110
B12 | 77.4 | 103
B13 | 67.5 | 103
B14 | 89.1 | 101
B15 | 87.6 | 101
B16 | 80.7 | 105
B17 | 93 | 109
B18 | 89.2 | 101

From US20180155451A1 (published 2018)
